The record followed here is patent US20160362487A1 (Regeneron, published 2016).

Experiment [1] concerns the target T1, human IL-33 (R&D Systems, #3625-IL-010/CF) (human, UniProt O95760 112-270).
T1 construct: Commercial recombinant protein; also called hIL-33; interleukin-33
T1 sequence (looked up): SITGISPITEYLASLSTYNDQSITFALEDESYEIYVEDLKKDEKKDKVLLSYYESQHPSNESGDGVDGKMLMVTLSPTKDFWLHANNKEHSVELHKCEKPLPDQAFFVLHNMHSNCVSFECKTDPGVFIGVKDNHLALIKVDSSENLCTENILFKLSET
The experiment in a line: BLI; hIL-33 pre-mixed with mAb-2 Isotype control 2. As to the method:
Binding competition between a panel of different anti-IL-33 monoclonal antibodies was determined using a real time, label-free bio-layer interferometry assay on an Octet® HTX biosensor (ForteBio, A Division of Pall Life Sciences). The experiment was performed at 25° C. using a buffer of 0.01M HEPES pH7.4, 0.15M NaCl, 0.05% v/v Surfactant Tween-20, and 0.1 mg/ml BSA (HBS-ET kinetics buffer) with the plate shaking at a speed of 1000 rpm. To assess whether two antibodies were able to compete with one another for binding to human IL-33, a pre-mix assay format was used where 100 nM of human IL-33 (R&D Systems; #3625-IL-010/CF) was pre-mixed with 500 nM of different anti-IL-33 monoclonal antibodies (subsequently referred to as mAb-2) for at least 2 hours prior to running the binding competition assay. […] Following the capture step, unoccupied anti-mouse Fc polyclonal antibody and anti-human Fc polyclonal antibody on the Octet biosensors were saturated by submerging them for 4 minutes into wells containing 200 μg/mL of a non-specific monoclonal antibody with a mouse Fc or with a human Fc, respectively. Finally, the Octet biosensors were immersed for 4 minutes into wells containing the pre-mixed samples of 100 nM of human IL-33 and 500 nM of mAb-2. At the end of each cycle, the non-covalently captured anti-IL-33 antibodies along with the bound pre-complex of human IL-33 and mAb-2 were removed from the biosensors using three alternate 20 second immersions into 10 mM HCl followed by submerging into HBS-ET kinetics buffer. The biosensors were washed in HBS-ET kinetics buffer in between every step of the experiment. The real-time binding response was monitored during the binding events, and the binding response (in units of nm) at the end of every step was recorded.

The target of experiment [2] is T1, human IL-33 (R&D Systems, …). Nature of the experiment: SPR 25C pH7.4, mAb captured. As to the method:
(§1) Equilibrium dissociation constants (KD values) for IL-33 binding to purified anti-IL-33 monoclonal antibodies were determined using a real-time surface plasmon resonance biosensor using a Biacore 4000 instrument. The Biacore sensor surface was first derivatized by amine coupling with either a polyclonal rabbit anti-mouse antibody (GE, # BR-1008-38) or with a monoclonal mouse anti-human Fc antibody (GE, # BR-1008-39) to capture anti-IL-33 monoclonal antibodies expressed with mouse or with human IgG4 constant regions, respectively. All Biacore binding studies were performed in 0.01M ADA pH 7.4, 0.15M NaCl, 3 mM EDTA, and 0.05% v/v Surfactant Tween-20 (ABS-ET running buffer). […] Association of either hIL-33 or MfIL-33-6His to the captured monoclonal antibody was monitored for 4 minutes and their dissociation in ABS-ET running buffer was monitored for 10 minutes. The effect of reduced pH on the binding of each anti-IL-33 antibody to either hIL-33 or MfIL-33-6His was studied using an in-line pH chase assay format in 0.01M ADA pH 6.0, 0.15M NaCl, 3 mM EDTA, and 0.05% v/v Surfactant Tween-20 (ABS-ET pH6 buffer). To achieve this, association of either hIL-33 or MfIL-33-6His to the captured monoclonal antibody was monitored for 4 minutes in ABS-ET running buffer. Following a 30 second dissociation of either hIL-33 or MfIL-33-6His in ABS-ET running buffer, ABS-ET pH6 buffer was injected for 3 minutes, and the analyte dissociation under the low-pH conditions was measured. All the binding kinetic experiments were performed at both 25° C. and 37° C. Kinetic association (kₐ) and dissociation (kd) constants were determined by fitting the real-time sensorgrams to a 1:1 binding model using Scrubber 2.0c curve fitting software. Binding dissociation equilibrium constants (KD) and dissociative half-lives (t½) were calculated from the kinetic rate constants as: […]

Experiment [3] deals with T2, cynomolgus monkey IL-33 expressed with a C-terminal hexahistidine tag (cynomolgus monkey).
T2 construct: also called MfIL-33-6His; Mf-IL-33-6His
T2 chain: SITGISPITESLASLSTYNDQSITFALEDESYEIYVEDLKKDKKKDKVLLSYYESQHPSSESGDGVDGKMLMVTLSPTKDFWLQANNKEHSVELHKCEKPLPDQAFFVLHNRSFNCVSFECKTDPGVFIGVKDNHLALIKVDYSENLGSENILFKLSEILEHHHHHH
Nature of the experiment: SPR 37C pH7.4, mAb captured. On the procedure: as §1

For experiment [4], the target named is T1, human IL-33 (R&D Systems, …). Nature of the experiment: SPR 37C pH7.4, mAb captured. As to the method: as §1
The target of experiment [5] is T3, pre-formed complex of hIL-33 and captured hST2-MMH (human, UniProt O95760 112-270).
T3 construct: Ligand-receptor complex on the sensor: hST2-MMH captured by anti-myc mAb and saturated with 100 nM hIL-33; also called hIL-33 pre-complexed with hST2-MMH
The experiment in a line: SPR 25C, 100 nM mAb over hIL-33/hST2-MMH complex. As to the method:
The ability of anti-IL-33 antibodies to bind to a pre-formed complex of IL-33 with ST2 was tested using Biacore T-200 instrument equipped with a real-time surface plasmon resonance biosensor. The experiment was performed at 25° C. with a running buffer composed of 0.01M HEPES pH 7.4, 0.15M NaCl, 3 mM EDTA, and 0.05% v/v Surfactant Tween-20 (HBS-ET). […] The captured hST2-MMH surface was then saturated by injecting 100 nM of human IL-33 (hIL-33; R&D Systems, #3625-IL-010/CF) for 3 minutes followed by a 3 minute injection of a 100 nM solution of the anti-IL-33 monoclonal antibody. The real-time binding response was monitored during the entire course of the experiment, and the observed binding response at 3 minutes after injection of anti-IL-33 antibody to the pre-formed complex of hIL-33 and captured hST2-MMH was recorded and tabulated and shown in Table 7. No non-specific binding of anti-IL-33 monoclonal antibody to the anti-myc tag capture surface was observed.

B1: H4H9659P (antibody, human IgG4, V domains shown)
VH: QVQLVQSGAEVKKPGASVKVSCKASGYTFNSYGISWVRQAPGQGLEWMGWISSHNGNSHYVQKFQGRVSMTTDTSTSTAYMELRSLRSDDTAVYYCARHSYTTSWYGGFDYWGQGTLVTVSS
VL: DIQMTQSPSSVSASVGDRVTITCRASQGFSSWLAWYQQKPGKAPQLLIYAASSLQSGVPSRFSGSGSGSDFTLTISSLQPEDFATYYCQQANSFPLTFGGGTKVEIK
notes: Human IgG4 Fc (H4H)
For B1, the “mAb-1 Binding to the Pre-complex of mAb-2 & hIL-33” value (from here on “mAb-1 Binding to the Pre-complex”) in experiment [1] is 0.09 nm. In experiment [2], this molecule yielded a Kd of 0.327 nM, a koff of 0.000172 s⁻¹, a kon of 526000 M⁻¹ s⁻¹ and a t½ of 67 min. In experiment [3], this molecule returned a Kd of 3.11 nM, a koff of 0.00186 s⁻¹, a kon of 598000 M⁻¹ s⁻¹ and a t½ of 6 min. For the same molecule, in experiment [4], the Kd stood at 0.57 nM, the off-rate (koff) worked out at 0.000403 s⁻¹, the kon turned out to be 707000 M⁻¹ s⁻¹ and the t½ is 29 min. Also, the “Antibody Binding Response (RU)” value in experiment [5] was -1 RU.

B2: H4H9662P (antibody, V domains shown)
VH: EVQLVESGGGLVQPGGSLRLSCAASGFTFSSYALTWVRQAPGKGLEWVSFISGSGGRPFYADSVKGRFTISRDNSKNMLYLQMNSLRAEDTAIYYCAKSLYTTSWYGGFDSWGQGTLVTVSS
VL: DIQMTQSPSSVSASVGDRVTITCRASQGVVSWLAWYQQKPGKAPKLLIYAASSLQSGVPSRFSGSGSGTDFTLTISSLQPEDFATYYCQQSNSFPFTLGPGTKVDIK
notes: Human IgG4 Fc (H4H)
For B2, the “mAb-1 Binding to the Pre-complex” value in experiment [1] was found to be 0.11 nm. Also, in experiment [2], the Kd was 0.308 nM, the koff was 0.00025 s⁻¹, the kon amounted to 811000 M⁻¹ s⁻¹ and the t½ was 46 min. Besides, in experiment [3], binding was put at a Kd of 2.24 nM, the koff is 0.00158 s⁻¹, the kon was 707000 M⁻¹ s⁻¹ and the t½ amounted to 7 min. Besides, in experiment [4], the Kd came out at 0.443 nM, the koff worked out at 0.00062 s⁻¹, the kon came to 1.4e+06 M⁻¹ s⁻¹ and the t½ worked out at 19 min. The “Antibody Binding Response (RU)” value in experiment [5] worked out at 0 RU.

B3: H4H9660P (antibody, human IgG4, V domains shown)
VH: EVQLVESGGGLVQPGGSLRLSCAASGITLSSYGMSWVRQAPGKGLEWVASIFGSGGGPYYADSVKGRFTMSRDNSKNTLYLQMNSLRAEDTAVYYCAKDRYSGSYYGGFDYWGRGTLVTVSS
VL: DIQMTQSPSSVSASVGDRVTITCRASQGITSWLAWYQQKPGKAPTLLIYAASSLQTGVPSRFSGSGSGTDFTLTISSLQPEHFATYYCQQANSFPPTFGGGTKVEIK
notes: Human IgG4 Fc (H4H)
On to B3, for which, in experiment [1], the “mAb-1 Binding to the Pre-complex” value was 0.15 nm. Moreover, in experiment [2], binding was characterised by a dissociation constant (Kd) of 0.322 nM, the koff turned out to be 0.000224 s⁻¹, the kon was determined as 696000 M⁻¹ s⁻¹ and the t½ was found to be 52 min. Moreover, in experiment [3], binding was put at a Kd of 6.53 nM, the koff worked out at 0.00444 s⁻¹, the kon came to 680000 M⁻¹ s⁻¹ and the t½ amounted to 2.6 min. Further, in experiment [4], the Kd came out at 0.596 nM, the koff is 0.000479 s⁻¹, the kon is 803000 M⁻¹ s⁻¹ and the t½ turned out to be 24 min. Also, the “Antibody Binding Response (RU)” value in experiment [5] is -1 RU.

B4: H4H9663P (antibody, human IgG4, V domains shown)
VH: QVQLVQSGAEVKKPGASVKVSCKASGYTFTGHYMYWMRQAPGQGLEWMGWINPNSGGTNYAQKFQDRVTMTRDTSISTAYMELSRLRSDDTAVYYCARGRYGSSWYGGFEYWGQGTLVTVSS
VL: DIQMTQSPSSVSASVGDRVTITCRASQGITSWLAWYQQKPGKAPNLLIYAAASLQSGVPSRFSGSGSGTDFTLTISSLQPEDFTTYYCQQAYSLPLTFGGGTKVEIK
notes: Human IgG4 Fc (H4H)
In the case of B4, in experiment [1], the “mAb-1 Binding to the Pre-complex” value stood at 0.09 nm. In experiment [2], this molecule displayed a Kd of 0.305 nM, a koff of 0.000414 s⁻¹, a kon of 1.36e+06 M⁻¹ s⁻¹ and a t½ of 28 min. In experiment [3], this molecule gave a Kd of 2.22 nM, a koff of 0.00361 s⁻¹, a kon of 1.62e+06 M⁻¹ s⁻¹ and a t½ of 3.2 min. Also, in experiment [4], the Kd was 0.677 nM, the koff is 0.00124 s⁻¹, the kon is 1.83e+06 M⁻¹ s⁻¹ and the t½ stood at 9 min. Besides, in experiment [5], the “Antibody Binding Response (RU)” value is -1 RU.

B5: H4H9664P (antibody, human IgG4, V domains shown)
VH: QVQLVESGGGVVQPGRSLRLSCAASGFTFSSYGLHWVRQSPGKGLEWVALISYDGSNKYYADSVKGRFTISRDNSKNTLYLQMNSLRPEDTAGYFCAKSLYTTSWYGGFDYWGQGTLVTVSS
VL: DIQMTQSPSSVSASVGDRVTITCRASQGIRSWLAWYQQKPGKAPNLLIYAASSLQSGVPSRFSGSGSGTDFTLTISSLQPEDFATYYCQQANSFPPTFGPGTKVDIK
notes: Human IgG4 Fc (H4H)
Consider B5, for which the “mAb-1 Binding to the Pre-complex” value in experiment [1] is 0.1 nm. In experiment [2], the Kd came out at 0.757 nM, the off-rate constant (koff) was 0.000257 s⁻¹, the kon stood at 339000 M⁻¹ s⁻¹ and the t½ was 45 min. Further, in experiment [3], the Kd worked out at 16.2 nM, the koff came to 0.00584 s⁻¹, the kon amounted to 361000 M⁻¹ s⁻¹ and the t½ was determined as 2 min. Also, in experiment [4], binding was put at a Kd of 1.39 nM, the koff came to 0.000721 s⁻¹, the kon was found to be 519000 M⁻¹ s⁻¹ and the t½ amounted to 16 min. Further, in experiment [5], the “Antibody Binding Response (RU)” value was -1 RU.
